Results reported in PMC5484534.

Target: 5,6-TAMRA-labeled short BMAL1 TAD (residues 594-626), wild type (mouse)
Experiment: fluorescence polarisation

Chain of mouse CRY1 photolyase homology region (PHR, residues 1-491) (P97784 1-491): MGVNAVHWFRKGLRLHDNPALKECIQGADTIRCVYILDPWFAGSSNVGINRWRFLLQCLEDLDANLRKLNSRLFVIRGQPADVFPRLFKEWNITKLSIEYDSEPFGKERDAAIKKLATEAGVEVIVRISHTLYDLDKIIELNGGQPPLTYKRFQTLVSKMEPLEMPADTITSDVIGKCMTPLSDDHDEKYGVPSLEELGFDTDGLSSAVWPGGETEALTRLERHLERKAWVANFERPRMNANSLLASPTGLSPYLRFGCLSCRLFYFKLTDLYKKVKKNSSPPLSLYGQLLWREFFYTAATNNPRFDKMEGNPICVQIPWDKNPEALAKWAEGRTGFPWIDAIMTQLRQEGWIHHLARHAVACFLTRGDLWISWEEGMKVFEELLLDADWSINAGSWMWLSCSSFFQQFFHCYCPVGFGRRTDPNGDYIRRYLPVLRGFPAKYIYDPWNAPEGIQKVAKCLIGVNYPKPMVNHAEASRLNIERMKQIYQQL

Kd: 900 nM
Substance: mouse CRY1 photolyase homology region (PHR, residues 1-491) (from UniProt P97784 1-491) (domain or fragment)
